Laboratory results taken from the supplement of paper PMC10567573.
± gives the standard deviation.

Experiment: protein stability index of a GFP-peptide fusion (GPS, HEK-293T) (PSI 1-6); higher = more stable
[1] = treatment: DMSO, c terminus: a fixed tail appended
[2] = treatment: MLN4924 1 uM, 8 h, c terminus: a fixed tail appended
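Also: 24-mer peptide tiles fused after GFP, lentivirally expressed, FACS-sorted into six equal bins by GFP/DsRed ratio, decoded by Illumina sequencing, PSI is the read-weighted mean bin number.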

Sequence | protein stability index [1] | protein stability index [2] | protein stability index (treatment: DMSO, c terminus: native) | protein stability index (treatment: MLN4924 1 uM, 8 h, c terminus: native)
HAYIHSVQFSHHVFLNLHTLKFYC [USP39] | 3.33 ± 0.42 | 3.04 ± 0.56 |  | 
YFALRKILKQLIADVTLDPETAHP [TRIM39] | 4.09 ± 0.2 | 4.34 ± 0.21 |  | 
LTRMTRVSEFLKVAEQVGIDKGDI [SNAP91] | 3.39 ± 0.23 | 3.48 ± 0.23 |  | 
ELLDLKAGGFSIRNQKGEQVFRLA [MYORG] | 2.32 ± 0.33 | 2.24 ± 0.48 |  | 
ICSSLQNLEKTIFCLQKLISLHPF [C8orf76] | 3.28 ± 1 | 2.65 ± 0.39 |  | 
KKNGLYLSLVLGNVNVTLLSKQAK [TMEM120A] | 2.51 ± 0.64 | 2.57 ± 0.35 |  | 
PDDPEHLAARRQWRDECLMRLAKL [CRYL1] | 3.66 ± 0.6 | 3.83 ± 0.36 |  | 
LVALKCTCCYFKFIIEYYNIRPAD [FBXO34] | 2.69 ± 0.38 | 2.81 ± 0.9 |  | 
TMELRNYFSLYCLHQETQLIHVYL [SNX8] | 3.41 ± 0.67 | 2.94 ± 0.72 |  | 
LDPSSGAIHVLGPIDFEESRFYEI [PCDHGC5] | 2.27 ± 0.2 | 2.25 ± 0.26 |  | 
VQPMDRLPYQHFSAHFTSGPLVPR [TBX5] | 2.88 ± 0.27 | 2.88 ± 0.33 |  | 
DLDRMGVMTLPSDLRKHRRKLLSP [PPFIA4] | 3.72 ± 0.25 | 3.73 ± 0.12 |  | 
LSQRVMCNDLFKVNPFQLQQFRAD [TIAF1] | 2.48 ± 0.18 | 2.5 ± 0.32 |  | 
IMDTVGNIWVCYASYVVFRIIYML [SLC19A2] | 2.83 ± 0.41 | 3.12 ± 0.53 |  | 
ASMAPAAALPPVPSPPAAPSVADN [SERTAD1] | 5.3 ± 0.13 | 5.31 ± 0.42 |  | 
GMEGLLGTLVQLLGSDDINVVTCA [CTNNB1] | 2.34 ± 0.55 | 2.46 ± 0.15 |  | 
RDDLDRLGVFLDYEAGVLAFYDVT [TRIM14] | 2.55 ± 0.31 | 2.06 ± 0.53 |  | 
LIGFCMFVLSLVKKHYRLQFYMFG [CDS2] | 2.33 ± 0.61 | 2.47 ± 0.85 |  | 
RVYLATDDPSLLKEAKTKYPNYEF [FUT8] | 2.95 ± 0.36 | 2.9 ± 0.28 |  | 
GKRYCRGKVLGKGGFAKCYEMTDL [PLK2] | 2.79 ± 0.35 | 2.92 ± 0.27 |  | 
PQYEFKEAAGSFTSSLAQPGAYYP [IRX6] | 3.37 ± 0.19 | 3.36 ± 0.24 |  | 
RRSSSKCIHDHHCGSQLSSTKGSR [NETO1] | 3.74 ± 0.33 | 3.92 ± 0.36 |  | 

Sequence | protein stability index [1] | protein stability index [2] | protein stability index (treatment: DMSO, c terminus: native) | protein stability index (treatment: MLN4924 1 uM, 8 h, c terminus: native)
KFSLLNAKREETKAMESQRAYRFV [SPOPL] | 3.06 ± 0.42 | 3.13 ± 0.23 |  | 
GHHQGMPGYLPGAMPPYGQGPPMV [ZNF207] | 2.86 ± 0.43 | 2.84 ± 0.2 |  | 
VRDSDDNSPLHIAALNNHPDIMNL [FEM1C] | 4.26 ± 0.24 | 4.42 ± 0.2 |  | 
LEDAAGGDSASEEKSGSAEPFVLP [FBXO34] | 5.46 ± 0.37 | 5.34 ± 0.33 |  | 
RPAQAIGTQPRATKHKCRQLTKAS [SPACA9] | 4.47 ± 0.16 | 4.44 ± 0.34 |  | 
RIQTQKEQAKENENGELQKIILPR [ZC2HC1C] | 4.77 ± 0.21 | 4.51 ± 0.41 |  | 
LEQQNQVLETKWELLQQLDLNNCK [KRT71] | 4.21 ± 0.21 | 4.4 ± 0.27 |  | 
LEEEIERNKESPVFAPVYFPEELH [HMOX1] | 5.32 ± 0.43 | 5.09 ± 0.57 |  | 
NGDITSFLLSVYAPGSSVEYQCQN [CFHR2] | 2.38 ± 0.58 | 2.09 ± 0.24 |  | 
LTTCTSNVAASNAKLALFYDWLFF [INTS3] | 2.33 ± 0.45 | 2.66 ± 0.54 |  | 
MPQSEEHLLEAEPLSPIQASSVHL | 4.87 ± 0.17 | 4.94 ± 0.17 |  | 
HQDLKYISPETMVALLTGKFSNIV [CDC25B] | 2.23 ± 0.41 | 2.55 ± 0.54 |  | 
CVLVPRADLRLGGQPAPPQLLLGR [SMAD6] | 2.5 ± 0.5 | 2.65 ± 0.099 |  | 
RLCGGKGGFGSMLRALGAQIEKTT [SDE2] | 2.59 ± 0.23 | 2.55 ± 0.45 |  | 
NLKTLDSKPGVYTSYKPYLNRDEE [DENND6A] | 3.6 ± 0.56 | 3.63 ± 0.38 |  | 
KIQDLIDDKDALVFVLIDEVESLT [TRIP13] | 2.46 ± 0.36 | 2.36 ± 0.11 |  | 
KVYTHPKWNTQTKARSYSYPHCTG [ZC2HC1C] | 2.73 ± 0.36 | 2.9 ± 0.39 |  | 
RINLVAAIFSAPAFPAAVSSMKKF [PSD2] | 2.37 ± 0.46 | 2.27 ± 0.59 |  | 
EANEEFALRVQQLVAKELGQTGTR [AUP1] | 3.87 ± 0.35 | 3.99 ± 0.45 |  | 
ELTSVTAWMLCKLLDKAGVPPGVV [ALDH8A1] | 2.98 ± 0.42 | 2.69 ± 0.52 |  | 
VDSKPELQRVLEHRRRNQLIKKKK [FAM107A] | 4.54 ± 0.2 | 4.61 ± 0.39 |  | 
FLRQLRASHLGNELEGTEELCCVA [C2CD2L] | 2.98 ± 0.1 | 3.19 ± 0.3 |  | 

Sequence | protein stability index [1] | protein stability index [2] | protein stability index (treatment: DMSO, c terminus: native) | protein stability index (treatment: MLN4924 1 uM, 8 h, c terminus: native)
FTAKHANKVKVLDAPVPDCLGVHC [FSD1] | 2.75 ± 0.26 | 3.04 ± 0.31 |  | 
THSSLSQELQARLQTVTREKEELL [CCDC89] | 4.89 ± 0.35 | 4.68 ± 0.22 |  | 
MAFFLCLGLALGAVFSFLFRAIV [SLC29A1] |  |  | 4.33 ± 0.19 | 4.14 ± 0.24
RKLLSPVSREENREDKATIKCETS [PPFIA4] | 5.11 ± 0.27 | 5.14 ± 0.26 |  | 
QPPLTYKRFQTLISKMEPLEIPVE [CRY1] | 2.97 ± 0.39 | 2.79 ± 0.34 |  | 
ADEQLHCAGKAKRSGGHAPRVREL [ESR2] | 4.45 ± 0.26 | 4.39 ± 0.3 |  | 
EKDERQRTTKPMAQRSAHCSRPSG [CSNK1G1] | 5.12 ± 0.11 | 4.98 ± 0.29 |  | 
YMRYSRKVWDQVKASNPDLKLWEI [SMARCE1] | 2.18 ± 0.73 | 1.95 ± 0.066 |  | 
NWQPAVPLMHMLHLSGALDFPRQS [SPATS1] | 2.07 ± 0.39 | 2.15 ± 0.52 |  | 
CVKNELLPSHPLELSEKNFQLNQD [POMP] | 4.42 ± 0.1 | 4.57 ± 0.14 |  | 
STVISSMPCLLMELRRDSSESQLA [C18orf25] | 3.02 ± 0.13 | 3.13 ± 0.33 |  | 
QAGDYSMRVDLRAGDEAVFAQYDS [TNXB] | 4.43 ± 0.42 | 4.2 ± 0.096 |  | 
PELSYRVCVGSDVTSIHKYMVRRY [MYORG] | 2.31 ± 0.14 | 2.27 ± 0.24 |  | 
EASSSPPEGSQDRNTSWGVVQEPP [TLE6] | 5.12 ± 0.28 | 5.2 ± 0.18 |  | 
GHRSIYLALKLPDGSYALNGEYTL [ADAMTS4] | 2.96 ± 0.94 | 2.63 ± 0.67 |  | 
RYDPQTNEWRMVASMSKRRCGVGV [KLHL20] | 2.71 ± 0.16 | 2.75 ± 0.3 |  | 
ELPNGSVKEAPAPTPTSLEVSSPP [PDZK1] | 5.04 ± 0.12 | 5.09 ± 0.17 |  | 
TCADRDNLTRRFSDLGFEVKCFND [CASP6] | 2.96 ± 0.32 | 3.24 ± 0.21 |  | 
DIDVQLSSELTDSLRTLKPEGNIL [NOP53] | 4.1 ± 0.29 | 4.06 ± 0.36 |  | 
LRNLSDAATKQEGMEGLLGTLVQL [CTNNB1] | 3.51 ± 0.16 | 3.03 ± 0.65 |  | 
QAQIHGLPVPPTPGLLSLATTSAS [TFE3] | 3.86 ± 0.11 | 3.87 ± 0.18 |  | 
